# In publication PMC9865274, “Ultrasensitive Detection of Interleukin 6 by Using Silicon Nanowire Field-Effect Transistors”:
# Target: Interleukin 6 (IL-6) (Homo sapiens, UniProt P05231 30-212)
# Experiment: SiNW-FET (gate voltage shift); aptamer immobilized on mSAMs-GA; IL-6 in PBS pH 7.4, 30 min; valid signal from 100 fM (2.1 pg/mL), approx. linear to 10 nM; no Kd; IL-6 in PBS pH 7.4, 30 min incubation, PBS wash; readout in 10 mM bis-tris propane pH 7.4; temperature of binding not stated
# Settings: protein: commercial
# Chain of Interleukin 6 (IL-6) (P05231 30-212): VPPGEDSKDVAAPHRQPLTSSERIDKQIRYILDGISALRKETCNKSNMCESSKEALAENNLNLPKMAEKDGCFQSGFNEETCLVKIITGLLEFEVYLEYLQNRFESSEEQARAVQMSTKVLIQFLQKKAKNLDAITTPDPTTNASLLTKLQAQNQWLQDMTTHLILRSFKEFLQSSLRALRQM
binder,measurement,value
"GGTGGCAGGAGGACTATTTATTTGCTTTTCT (ssDNA, 5'-NH2-C6, covalently immobilized via glutaraldehyde on mixed-SAM SiNW-FET) [anti-IL-6 aptamer (31 nt)]",binding result,binds
